# In publication PMC11331505, “Binding Behavior of Human Hepatoma-Derived Growth Factor on SMYD1”:
# B1: 15 bp SMYD1 dsDNA (5' Cy3) (dsDNA)
# DNA 1: TTCAAGACCAGCCTG
# DNA 2: CAGGCTGGTCTTGAA
# B2: poly(dT)40 ssDNA (ssDNA)
# DNA: TTTTTTTTTTTTTTTTTTTTTTTTTTTTTTTTTTTTTTTT
# B3: 15 bp SMYD1 dsDNA (3' Cy3) (dsDNA)
# DNA 1: TTCAAGACCAGCCTG
# DNA 2: CAGGCTGGTCTTGAA
# B4: GC-rich dsDNA (dsDNA)
# DNA 1: TCCTCGCTGCCGTCGGCCA
# DNA 2: TGGCCGACGGCAGCGAGGA
# B5: poly(T-A)15 dsDNA (dsDNA)
# DNA 1: TTTTTTTTTTTTTTT
# DNA 2: AAAAAAAAAAAAAAA
# Tests used:
# D. ficus RecA (D. ficus) = experiment: PIFE (Cy3 fluorescence enhancement); conditions: 1 nM DNA; HDGF assays: 46 mM NaCl, 0.9 mM KCl, 3.3 mM Na2HPO4, 0.66 mM KH2PO4, pH 7.4; at least 1 h on ice; 1-10 nM Cy3 DNA, 10 pM-100 nM protein; RecA dsDNA control at …
# HDGF [1] = target: T1, HDGF (human, UniProt P51858 1-240); experiment: PIFQ (Cy3 fluorescence quenching); 1 nM DNA; Hill fit (approximation model 0.017 nM); HDGF assays: 46 mM NaCl, 0.9 mM KCl, 3.3 mM Na2HPO4, 0.66 mM KH2PO4, pH 7.4; at least 1 h on ice; 1-10 nM Cy3 DNA, 10 pM-100 nM protein; RecA dsDNA control at pH 7.5; conditions: protein: recombinant; label: 5' Cy3
# T1 sequence (P51858 whole entry, the tested form may be a part): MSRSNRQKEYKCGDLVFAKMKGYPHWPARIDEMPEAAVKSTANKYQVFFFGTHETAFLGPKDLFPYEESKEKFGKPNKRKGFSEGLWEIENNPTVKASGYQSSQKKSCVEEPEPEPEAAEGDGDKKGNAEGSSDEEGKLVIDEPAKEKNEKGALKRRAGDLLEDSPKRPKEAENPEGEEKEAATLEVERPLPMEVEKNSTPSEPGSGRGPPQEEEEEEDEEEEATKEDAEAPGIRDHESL
# HDGF PWWP domain [2] = target: T2, HDGF PWWP domain (human, UniProt P51858 1-100); experiment: PIFQ (Cy3 fluorescence quenching); 5 nM DNA; approximation model; HDGF assays: 46 mM NaCl, 0.9 mM KCl, 3.3 mM Na2HPO4, 0.66 mM KH2PO4, pH 7.4; at least 1 h on ice; 1-10 nM Cy3 DNA, 10 pM-100 nM protein; RecA dsDNA control at pH 7.5; conditions: protein: recombinant; label: 5' Cy3
# T2 sequence (P51858 1-100): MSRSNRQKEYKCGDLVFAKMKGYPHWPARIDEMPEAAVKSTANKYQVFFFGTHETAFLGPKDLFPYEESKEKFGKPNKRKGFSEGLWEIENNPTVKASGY
# HDGF PWWP domain [3] = target: T2, HDGF PWWP domain; experiment: PIFQ (Cy3 fluorescence quenching); 1 nM DNA; n=1.00; HDGF assays: 46 mM NaCl, 0.9 mM KCl, 3.3 mM Na2HPO4, 0.66 mM KH2PO4, pH 7.4; at least 1 h on ice; 1-10 nM Cy3 DNA, 10 pM-100 nM protein; RecA dsDNA control at pH 7.5; conditions: protein: recombinant; label: 5' Cy3
# HDGF S103A [4] = target: T3, HDGF S103A (human, UniProt P51858 1-240, S103A); experiment: PIFQ (Cy3 fluorescence quenching); 1 nM DNA; Hill n=0.67; HDGF assays: 46 mM NaCl, 0.9 mM KCl, 3.3 mM Na2HPO4, 0.66 mM KH2PO4, pH 7.4; at least 1 h on ice; 1-10 nM Cy3 DNA, 10 pM-100 nM protein; RecA dsDNA control at pH 7.5; conditions: protein: recombinant; label: 5' Cy3
# T3 sequence (P51858 whole entry S103A): as the sequence (P51858 whole entry, the tested form may be a part) above, with S103A counted along it
# HDGF [5] = target: T1, HDGF; experiment: PIFQ (Cy3 fluorescence quenching); 5 nM DNA; Hill fit (approximation model 0.019 nM); HDGF assays: 46 mM NaCl, 0.9 mM KCl, 3.3 mM Na2HPO4, 0.66 mM KH2PO4, pH 7.4; at least 1 h on ice; 1-10 nM Cy3 DNA, 10 pM-100 nM protein; RecA dsDNA control at pH 7.5; conditions: protein: recombinant; label: 5' Cy3
# HDGF PWWP domain [6] = target: T2, HDGF PWWP domain; experiment: PIFQ (Cy3 fluorescence quenching); 10 nM DNA; approximation model; less reliable (protein depletion); HDGF assays: 46 mM NaCl, 0.9 mM KCl, 3.3 mM Na2HPO4, 0.66 mM KH2PO4, pH 7.4; at least 1 h on ice; 1-10 nM Cy3 DNA, 10 pM-100 nM protein; RecA dsDNA control at pH 7.5; conditions: protein: recombinant; label: 5' Cy3
# [7] = target: T4, HDGF PWWP domain;HDGF C140 domain (human;human, UniProt P51858;P51858 1-100;101-240, |); experiment: PIFQ (Cy3 fluorescence quenching); 1 nM DNA; equal amounts premixed; Hill n=0.63; HDGF assays: 46 mM NaCl, 0.9 mM KCl, 3.3 mM Na2HPO4, 0.66 mM KH2PO4, pH 7.4; at least 1 h on ice; 1-10 nM Cy3 DNA, 10 pM-100 nM protein; RecA dsDNA control at pH 7.5; conditions: protein: recombinant;recombinant; copies: 1;1; label: 5' Cy3
# T4 sequence (P51858 1-100, chain 1 of 2): as the sequence (P51858 1-100) above
# T4 sequence (P51858 101-240, chain 2 of 2): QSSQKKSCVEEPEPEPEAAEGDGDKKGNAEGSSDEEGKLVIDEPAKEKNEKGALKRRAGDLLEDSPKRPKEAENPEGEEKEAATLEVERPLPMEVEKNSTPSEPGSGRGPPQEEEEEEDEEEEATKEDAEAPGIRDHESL
# HDGF [8] = target: T1, HDGF; experiment: PIFQ (Cy3 fluorescence quenching); 10 nM DNA; Hill fit (approximation model 0.031 nM); HDGF assays: 46 mM NaCl, 0.9 mM KCl, 3.3 mM Na2HPO4, 0.66 mM KH2PO4, pH 7.4; at least 1 h on ice; 1-10 nM Cy3 DNA, 10 pM-100 nM protein; RecA dsDNA control at pH 7.5; conditions: protein: recombinant; label: 5' Cy3
# HDGF C140 domain [9] = target: T5, HDGF C140 domain (human, UniProt P51858 101-240); experiment: PIFQ (Cy3 fluorescence quenching); 1 nM DNA; up to 100 nM protein; HDGF assays: 46 mM NaCl, 0.9 mM KCl, 3.3 mM Na2HPO4, 0.66 mM KH2PO4, pH 7.4; at least 1 h on ice; 1-10 nM Cy3 DNA, 10 pM-100 nM protein; RecA dsDNA control at pH 7.5; conditions: protein: recombinant; label: 5' Cy3
# T5 sequence (P51858 101-240): as the sequence (P51858 101-240, chain 2 of 2) above
# E. coli RecA = E. coli RecA (E. coli, UniProt P0A7G6 2-353); experiment: PIFE (Cy3 fluorescence enhancement); 1 nM DNA; approximation model; HDGF assays: 46 mM NaCl, 0.9 mM KCl, 3.3 mM Na2HPO4, 0.66 mM KH2PO4, pH 7.4; at least 1 h on ice; 1-10 nM Cy3 DNA, 10 pM-100 nM protein; RecA dsDNA control at pH 7.5; conditions: label: Cy3
# E. coli RecA, sequence (P0A7G6 2-353): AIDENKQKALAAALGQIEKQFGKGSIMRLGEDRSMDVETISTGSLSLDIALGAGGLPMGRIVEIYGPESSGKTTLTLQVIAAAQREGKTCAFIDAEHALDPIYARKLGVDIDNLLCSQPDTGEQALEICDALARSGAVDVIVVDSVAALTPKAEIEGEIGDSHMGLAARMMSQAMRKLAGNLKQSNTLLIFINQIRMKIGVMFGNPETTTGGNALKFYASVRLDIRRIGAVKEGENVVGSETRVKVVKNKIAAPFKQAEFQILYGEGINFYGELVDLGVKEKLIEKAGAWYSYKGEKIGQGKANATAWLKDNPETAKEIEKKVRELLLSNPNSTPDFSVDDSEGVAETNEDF
# HDGF [10] = target: T1, HDGF; experiment: PIFQ (Cy3 fluorescence quenching); 1 nM DNA; Hill n=0.60; unit not printed in legend; HDGF assays: 46 mM NaCl, 0.9 mM KCl, 3.3 mM Na2HPO4, 0.66 mM KH2PO4, pH 7.4; at least 1 h on ice; 1-10 nM Cy3 DNA, 10 pM-100 nM protein; RecA dsDNA control at pH 7.5; conditions: protein: recombinant; label: 3' Cy3
# HDGF PWWP domain [11] = target: T2, HDGF PWWP domain; experiment: PIFQ (Cy3 fluorescence quenching); 1 nM DNA; Hill n=1.0; unit not printed in legend; HDGF assays: 46 mM NaCl, 0.9 mM KCl, 3.3 mM Na2HPO4, 0.66 mM KH2PO4, pH 7.4; at least 1 h on ice; 1-10 nM Cy3 DNA, 10 pM-100 nM protein; RecA dsDNA control at pH 7.5; conditions: protein: recombinant; label: 3' Cy3
# HDGF PWWP domain [12] = target: T2, HDGF PWWP domain; experiment: PIFQ (Cy3 fluorescence quenching); 1 nM DNA; Hill n=1.00; HDGF assays: 46 mM NaCl, 0.9 mM KCl, 3.3 mM Na2HPO4, 0.66 mM KH2PO4, pH 7.4; at least 1 h on ice; 1-10 nM Cy3 DNA, 10 pM-100 nM protein; RecA dsDNA control at pH 7.5; conditions: protein: recombinant; label: Cy3
# HDGF [13] = target: T1, HDGF; experiment: PIFQ (Cy3 fluorescence quenching); 1 nM DNA; Hill n=0.55; HDGF assays: 46 mM NaCl, 0.9 mM KCl, 3.3 mM Na2HPO4, 0.66 mM KH2PO4, pH 7.4; at least 1 h on ice; 1-10 nM Cy3 DNA, 10 pM-100 nM protein; RecA dsDNA control at pH 7.5; conditions: protein: recombinant; label: Cy3
# HDGF S103A [14] = target: T3, HDGF S103A; experiment: PIFQ (Cy3 fluorescence quenching); 1 nM DNA; Hill n=0.50; HDGF assays: 46 mM NaCl, 0.9 mM KCl, 3.3 mM Na2HPO4, 0.66 mM KH2PO4, pH 7.4; at least 1 h on ice; 1-10 nM Cy3 DNA, 10 pM-100 nM protein; RecA dsDNA control at pH 7.5; conditions: protein: recombinant; label: Cy3
# HDGF C140 domain [15] = target: T5, HDGF C140 domain; experiment: PIFQ (Cy3 fluorescence quenching); 1 nM DNA; HDGF assays: 46 mM NaCl, 0.9 mM KCl, 3.3 mM Na2HPO4, 0.66 mM KH2PO4, pH 7.4; at least 1 h on ice; 1-10 nM Cy3 DNA, 10 pM-100 nM protein; RecA dsDNA control at pH 7.5; conditions: protein: recombinant
# [16] = target: T4, HDGF PWWP domain;HDGF C140 domain; experiment: PIFQ (Cy3 fluorescence quenching); 1 nM DNA; equal amounts premixed; Hill n=0.50; HDGF assays: 46 mM NaCl, 0.9 mM KCl, 3.3 mM Na2HPO4, 0.66 mM KH2PO4, pH 7.4; at least 1 h on ice; 1-10 nM Cy3 DNA, 10 pM-100 nM protein; RecA dsDNA control at pH 7.5; conditions: protein: recombinant;recombinant; copies: 1;1; label: Cy3
# HDGF [17] = target: T1, HDGF; experiment: PIFQ (Cy3 fluorescence quenching); 1 nM DNA; HDGF assays: 46 mM NaCl, 0.9 mM KCl, 3.3 mM Na2HPO4, 0.66 mM KH2PO4, pH 7.4; at least 1 h on ice; 1-10 nM Cy3 DNA, 10 pM-100 nM protein; RecA dsDNA control at pH 7.5; conditions: protein: recombinant; label: 5' Cy3
# HDGF S103A [18] = target: T3, HDGF S103A; experiment: as above; conditions: protein: recombinant; label: 5' Cy3
# HDGF PWWP domain [19] = target: T2, HDGF PWWP domain; experiment: PIFQ (Cy3 fluorescence quenching); 1 nM DNA; Hill fit; HDGF assays: 46 mM NaCl, 0.9 mM KCl, 3.3 mM Na2HPO4, 0.66 mM KH2PO4, pH 7.4; at least 1 h on ice; 1-10 nM Cy3 DNA, 10 pM-100 nM protein; RecA dsDNA control at pH 7.5; conditions: protein: recombinant; label: 5' Cy3
molecule,measurement,setting,value
TTTTTTTTTTTTTTTTTTTTTTTTTTTTTTTTTTTTTTTT [poly(dT)40 ssDNA],Kd,D. ficus RecA (D. ficus),13.6 nM
TTTTTTTTTTTTTTTTTTTTTTTTTTTTTTTTTTTTTTTT (double strand) [poly(T-A)40 dsDNA],Kd,D. ficus RecA (D. ficus),19 nM
B1,Kd,HDGF [1],0.095 ± 0.016 nM
same,Kd,HDGF PWWP domain [2],~1 nM
same,Kd,HDGF PWWP domain [3],0.94 ± 0.1 nM
same,Kd,HDGF S103A [4],0.072 ± 0.003 nM
same,Kd,HDGF [5],0.085 ± 0.024 nM
same,Kd,HDGF PWWP domain [6],1.6 ± 0.2 nM
same,Kd,[7],0.12 ± 0.04 nM
same,Kd,HDGF [8],0.076 ± 0.02 nM
same,binding result,HDGF C140 domain [9],no binding
B2,Kd,E. coli RecA,34.5 ± 6.8 nM
B3,Kd,HDGF [10],0.08 ± 0.004 nM
same,Kd,HDGF PWWP domain [11],1.4 ± 0.2 nM
B4,Kd,HDGF PWWP domain [12],0.97 ± 0.19 nM
same,Kd,HDGF [13],0.25 ± 0.03 nM
same,Kd,HDGF S103A [14],0.34 ± 0.06 nM
same,binding result,HDGF C140 domain [15]; label: Cy3,no binding
same,Kd,[16],0.45 ± 0.06 nM
B5,binding result,HDGF C140 domain [15]; label: 5' Cy3,no binding
same,binding result,HDGF [17],no binding
same,binding result,HDGF S103A [18],no binding
same,Kd,HDGF PWWP domain [19],1.6 ± 0.2 nM
